Reference: patent publication US20200231684A1 (published 2020)
Residue numbers refer to the chain shown, from its start.

T1: human IL-36R on cells (human, UniProt Q9HB29 20-575)
T1 sequence (looked up): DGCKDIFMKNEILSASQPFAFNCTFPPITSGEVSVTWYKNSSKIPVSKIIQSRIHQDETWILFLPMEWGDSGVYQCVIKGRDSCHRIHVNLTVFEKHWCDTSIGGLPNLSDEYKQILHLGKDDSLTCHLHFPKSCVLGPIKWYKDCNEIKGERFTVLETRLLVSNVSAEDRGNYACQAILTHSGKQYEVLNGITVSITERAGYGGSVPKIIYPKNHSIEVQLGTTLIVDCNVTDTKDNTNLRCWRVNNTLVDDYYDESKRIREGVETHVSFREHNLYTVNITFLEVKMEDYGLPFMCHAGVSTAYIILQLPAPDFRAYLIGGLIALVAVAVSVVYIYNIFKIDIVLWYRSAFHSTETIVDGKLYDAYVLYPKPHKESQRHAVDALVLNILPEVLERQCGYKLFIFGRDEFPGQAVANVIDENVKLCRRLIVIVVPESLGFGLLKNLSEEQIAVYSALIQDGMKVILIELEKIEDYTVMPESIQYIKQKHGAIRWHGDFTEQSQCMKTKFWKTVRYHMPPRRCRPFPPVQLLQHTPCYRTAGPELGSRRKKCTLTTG

T2: mouse IL-36R (mouse, UniProt Q9ERS7 22-338)
T2 sequence (looked up): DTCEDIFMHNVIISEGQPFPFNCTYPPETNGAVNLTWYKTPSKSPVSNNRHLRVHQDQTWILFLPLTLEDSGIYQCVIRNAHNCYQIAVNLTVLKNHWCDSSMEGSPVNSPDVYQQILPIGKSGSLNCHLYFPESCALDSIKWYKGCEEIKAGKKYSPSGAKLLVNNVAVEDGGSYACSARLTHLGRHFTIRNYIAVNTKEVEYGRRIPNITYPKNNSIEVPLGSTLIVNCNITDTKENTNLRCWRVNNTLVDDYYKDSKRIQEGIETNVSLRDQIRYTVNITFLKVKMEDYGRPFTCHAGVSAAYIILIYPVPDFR

T3: human IL-1R1 (human, UniProt P14778 18-336, limits assumed)
T3 construct: also called IL-1RI
T3 sequence (looked up): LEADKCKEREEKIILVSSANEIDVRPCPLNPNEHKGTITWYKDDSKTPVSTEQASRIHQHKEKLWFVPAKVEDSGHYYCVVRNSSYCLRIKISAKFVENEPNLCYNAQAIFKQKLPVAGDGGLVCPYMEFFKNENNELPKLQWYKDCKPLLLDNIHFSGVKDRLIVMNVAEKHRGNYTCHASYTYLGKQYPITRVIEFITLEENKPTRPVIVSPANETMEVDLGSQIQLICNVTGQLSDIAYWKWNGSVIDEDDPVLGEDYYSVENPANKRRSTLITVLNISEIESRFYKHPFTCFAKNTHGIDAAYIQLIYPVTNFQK

B1: chimeric antibody C73C5 (antibody, V domains shown)
VH: QVQLKESGPGLVAPSQSLSITCTVSGFSLTNYAVHWVRQFPGKGLEWLGVIWSDGSTDFNAPFKSRLSINKDNSKSQVFFKMNSLQIDDTAIYYCARKGGYSGSWFAYWGQGTLVTVSA
VL: DIVMTQSQKFLSTSVGVRVSVTCKASQDVGTNVLWYQQKIGQSPKPLIYSASYRHSGVPDRFTGSGSGTDFTLIISNVQSEDLAEYFCQQYSRYPLTFGPGTKLELK
notes: Mouse variable domains of 73C5 on human constant domains (hu IgG1KO/kappa); also called chimeric 73C5
B2: chimeric antibody C33D10 (antibody, V domains shown)
VH: QVQLQQSGTELLKPGASVKLSCKASGNTVTSYWMHWVKQRPGQGLEWIGEILPSTGRTNYNENFKGKAMLTVDKSSSTAYMQLSSLASEDSAVYYCTIVYFGNPWFAYWGQGTLVTVSA
VL: QIVLTQSPAIMSASLGERVTMTCTASSSVSSSYLHWYQKKPGSSPKLWVYSTSNLASGVPVRFSGSGSGTSYSLTISSMEAEDAATYYCHQHHRSPVTFGSGTKLEMK
notes: Mouse variable domains of 33D10 on human constant domains (hu IgG1KO/kappa); also called chimeric 33D10
B3: chimeric antibody C81B4 (antibody, V domains shown)
VH: QVQLQQPGADFVRPGASMRLSCKASGYSFTSSWIHWVKQRPGQGLEWIGEINPGNVRTNYNENFRNKATLTVDKSSTTAYMQLRSLTSADSAVYYCTVVFYGEPYFPYWGQGTLVTVSA
VL: B2 VL with L34F, K39Q, V49I, S51R, V61G, H92F, V97L, S101A, M107L
notes: Mouse variable domains of 81B4 on human constant domains (hu IgG1KO/kappa); also called chimeric 81B4
B4: chimeric antibody C81A1 (antibody, V domains shown)
VH: QVQLKESGPGLVAPSQSLFITCTVSGFSLSSYEINWVRQVPGKGLEWLGVIWTGITTNYNSALISRLSISKDNSKSLVFLKMNSLQTDDTAIYYCARGTGTGFYYAMDYWGQGTSVTVSS
VL: DIQMTQTTSSLSASLGDRVTISCRASQDIYKYLNWYQQKPDGTLKLLIYYTSGLHSGVPSRFSGSGSGTDFSLTISNLEPEDIATYFCQQDSKFPWTFGGDTKLEIK
notes: Mouse variable domains of 81A1 on human constant domains (hu IgG1KO/kappa); also called chimeric 81A1
B5: chimeric antibody of 76E10 (antibody, V domains shown)
VH: QVQLKESGPVLVAPSQSLSITCTVSGFSLTNYGVHWVRQPPGKGLEWLGVIWPVGSTNYNSALMSRLSIHKDNSKSQVFLRMNSLQTDDTAIYYCAKMDWDDFFDYWGQGTTLTVSS
VL: DIVMTQSQKFMSATVGGRVNITCKASQNVGRAVAWYQQKPGQSPKLLTHSASNRYTGVPDRFTGSGSGTDFTLTITNMQSEDLADYFCQQYSSYPLTFGAGTKLDLK
notes: No own label printed; also called chimeric 76E10
B6: chimeric antibody of 78C8 (antibody, V domains shown)
VH: QVQLKESGPVLVAPSQSLSITCTVSGFSLTKFGVHWIRQTPGKGLEWLGVIWAGGPTNYNSALMSRLTISKDISQSQVFLRIDSLQTDDTAMYYCAKQIYYSTLVDYWGQGTSVTVSS
VL: DVLLTQTPLSLPVSLGDQASISCRSSQNIVHSNGNTYLQWYLQKPGQSPKLLIYKVSNRFSGVPDRFSGSGSGTDFTLKISRVEAEDLGVYYCFQGSHVPFTFGAGTKLELK
notes: No own label printed; also called chimeric 78C8
B7: chimeric antibody of 73F6 (antibody, V domains shown)
VH: B1 VH with F59Y, I87T
VL: B1 VL with P46A, S76T
notes: No own label printed; also called chimeric 73F6
B8: chimeric antibody of 172C8 (antibody, V domains shown)
VH: EVQLQQSGPELVKPGASVKLSCKASGYTFTDNYMNWVRQSHGKSLEWIGRVNPSNGDTKYNQNFKGKATLTVDKSLSTAYMQLNGLTSEDSAVYYCGRTKNFYSSYSYDDAMDYWGQGTSVTVSS
VL: DIQMTQSPASQSASLGESVTFTCLASQTIGTWLAWYQQRPGKSPQLLIYAATSLADGVPSRFSGSGSGTQFSFNIRSLQAEDFASYYCQQVYTTPLTFGGGTKLEIK
notes: No own label printed; also called chimeric 172C8
B9: chimeric antibody of 67E7 (antibody, V domains shown)
VH: EVQLQQSGAEFVRPGASVKFSCTASGFNIKDDYIHWVRQRPEQGLEWVGRIDPANGNTKYAPKFQDKATITADTSSNTAYLQLSSLTSEDTAVYYCAKSFPNNYYSYDDAFAYWGQGTLVTVSA
VL: DIQMTQSPASQSASLGESVTFTCLASQTIGTWLGWYQQKPGKSPQLLIYRSTTLADGVPSRFSGSGSGTKFSFKISSLQAADFASYYCQQLYSAPYTFGGGTKLEIR
notes: No own label printed; also called chimeric 67E7
B10: chimeric antibody of 89A12 (antibody, V domains shown)
VH: B9 VH with F11L, K19R, F20L, E42K, V48L, A61D, K63R, Q82H, N102D
VL: B9 VL with T22S, S51A, T53S, K70N, A81E, F83L, A94G
notes: No own label printed; also called chimeric 89A12

Biological target: T1, human IL-36R on cells
Experiment: cell-based or functional assay

Binder	IC90, IL-8 release, NCI/ADR-RES cells, trun-IL-36a	IC90, IL-8 release, NCI/ADR-RES cells, trun-IL-36b	IC90, IL-8 release, NCI/ADR-RES cells, trun-IL-36g	IC90, pNFκB, NCI/ADR-RES cells, trun-IL-36a	IC90, pNFκB, NCI/ADR-RES cells, trun-IL-36b	IC90, pNFκB, NCI/ADR-RES cells, trun-IL-36g
B1	0.7 nM	0.4 nM	0.4 nM	2.1 nM	0.9 nM	1.8 nM
B2	0.4 nM	0.3 nM	0.2 nM	1.9 nM	2 nM	1.3 nM
B3	0.4 nM	0.1 nM	0.1 nM	1.3 nM	0.9 nM	0.4 nM

Biological target: T1, human IL-36R on cells
Experiment: cell-based or functional assay
Remark: another data set of the same source

Binder	IC90, IL-8 release, human primary keratinocytes (NHK), trun-IL-36a	IC90, IL-8 release, human primary keratinocytes (NHK), trun-IL-36b	IC90, IL-8 release, human primary keratinocytes (NHK), trun-IL-36g	IC90, pNFκB, human primary keratinocytes (NHK), trun-IL-36b
B1	29.7 nM	49.3 nM	3.6 nM	8.3 nM
B3	1.2 nM	11.1 nM	0.3 nM	1.8 nM
B4	23.4 nM	87 nM	1.2 nM	7.1 nM

Biological target: T2, mouse IL-36R
Experiment: BLI (Fortebio Octet), antibody injected over antigen surface
Procedure: (§1) B) Molecular selectivity over mouse IL-36R and human IL-1R1 The mouse and chimeric anti-IL-36R antibodies were also injected over either a mouse IL-36R or a human IL-1R1 surface at a concentration of 100 nM. The binding signal to mouse IL-36R and to human IL-1R1 for these antibodies measured using the Fortebio Octet (Fortebio, Menlo Park, Calif.) is zero, which indicates these antibodies selectively bind to human IL-36R.

Binder	binding result
B5	no binding (tested: 100 nM)
B6	no binding (tested: 100 nM)
B1	no binding (tested: 100 nM)
B7	no binding (tested: 100 nM)
B8	no binding (tested: 100 nM)
B2	no binding (tested: 100 nM)
B3	no binding (tested: 100 nM)
B9	no binding (tested: 100 nM)
B10	no binding (tested: 100 nM)
B4	no binding (tested: 100 nM)

Biological target: T3, human IL-1R1
Experiment: as above
Procedure: as §1

Binder	binding result
B5	no binding (tested: 100 nM)
B6	no binding (tested: 100 nM)
B1	no binding (tested: 100 nM)
B7	no binding (tested: 100 nM)
B8	no binding (tested: 100 nM)
B2	no binding (tested: 100 nM)
B3	no binding (tested: 100 nM)
B9	no binding (tested: 100 nM)
B10	no binding (tested: 100 nM)
B4	no binding (tested: 100 nM)
